Measurements as given in patent US20180193496A1 (PHILOGEN S P A, published 2018).

B1: antibody G10 in scFv format (scFv, V domains shown)
VH: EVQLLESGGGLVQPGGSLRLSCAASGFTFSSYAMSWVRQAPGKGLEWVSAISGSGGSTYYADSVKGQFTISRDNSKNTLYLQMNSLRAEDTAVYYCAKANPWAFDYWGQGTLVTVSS
VL: SELTQDPAVSVALGQTVRITCQGDSLRSYYASWYQQKPGQAPVLVIYGKNNRPSGIPDRFSGSSSGNTASLTITGAQAEDEADYYCNSSGSQRSPVVFGGGTKLTVL
notes: The monomeric fraction was used in Biacore
B2: anti-human MMP3 antibody CH01 in scFv format (scFv, V domains shown)
VH: EVQLLESGGGLVQPGGSLRLSCAASGFTFSPYAMSWVRQAPGKGLEWVSAITGQGGVTYYADSVKGRFTISRDNSKNTLYLQMNSLRAEDTAVYYCAKISSFHFDYWGQGTLVTVSS
VL: EIVLTQSPGTLSLSPGERATLSCRASQSVSSHHLAWYQQKPGQAPRLLIYDASSRATGIPDRFSGSGSGTDFTLTISRLEPEDFAVYYCQQPRGAPTTFGQGTKVEIK
notes: The scFv is myc-tagged (detected with anti-myc 9E10); also called scFv(CH01)

Columns and labels:
[1] = target: T1, recombinant peptide consisting of amino acids 262-534 of tenascin-W (human, UniProt Q9UQP3 262-534); assay: Biacore, tenascin-W 262-534 on a CM-5 chip, scFv
T1 construct: also called recombinant tenascin-W peptide used to isolate the G10 antibody
T1 sequence: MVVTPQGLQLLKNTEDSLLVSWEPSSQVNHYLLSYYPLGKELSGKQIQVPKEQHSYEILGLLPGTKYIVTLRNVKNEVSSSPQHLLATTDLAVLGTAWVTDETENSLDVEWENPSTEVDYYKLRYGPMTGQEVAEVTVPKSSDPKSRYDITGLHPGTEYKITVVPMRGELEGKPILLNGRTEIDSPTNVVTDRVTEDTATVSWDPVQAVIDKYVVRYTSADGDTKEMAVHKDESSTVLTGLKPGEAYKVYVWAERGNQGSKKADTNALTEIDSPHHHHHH
Method: A monomeric fraction of the purified G10 antibody was analyzed by surface plasmon resonance (BIAcore, 3000 system). A recombinant peptide consisting of amino acids 262-534 of tenascin-W was covalently coupled to the surface of the CM-5 sensor Chip. Twenty-five microliters of each sample were injected at the flow rate of 10 μL/min. The regeneration of the chip was performed with 5 μL of 10 mM glycine-HCl, pH 2.5 (GE Healthcare).

[2] = target: T2, catalytic domain of human MMP3 (amino acids 100-273), recombinant (human, UniProt P08254 100-273, biotinylated (in the ELISA)); assay: ELISA on biotinylated catalytic domain, scFv
T2 construct: range 100-273; also called HsMMP3; human MMP3 catalytic domain
T2 sequence (P08254 100-273 limits assumed): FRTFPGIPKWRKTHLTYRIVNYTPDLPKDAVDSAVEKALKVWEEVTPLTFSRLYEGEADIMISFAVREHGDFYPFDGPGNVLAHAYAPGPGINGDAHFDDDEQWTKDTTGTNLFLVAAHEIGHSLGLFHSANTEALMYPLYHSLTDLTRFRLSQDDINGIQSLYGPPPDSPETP

Row | Binder | binding result [1] | binding result [2]
1 | B1 | binds | 
2 | B2 |  | binds
